Patent publication US12692294B2, “Engineered NRG-1 variants with improved selectivity toward ErbB4 but not against ErbB3” (Amgen Inc., priority 2021, dated 2026)

Experiments:
ErbB4 = target: T1, ErbB4 (Rattus norvegicus, UniProt Q62956); assay: In vitro phosphorylation of Akt in neonatal rat cardiomyocytes; assay type: cell-based; details: for EC50: Akt (Serine 473) phosphorylation, neonatal rat cardiomyocytes, 15 minutes treatment, read-out: Cardiomyocyte (CM) (ErbB4) Avg EC50; for Selectivity SC/CM: ratio of EC50s Schwann cells/cardiomyocytes; for CM % Agonism AVG: top value of the Akt phosphorylation data points in cardiomyocytes, wild-type control 100
T1 construct: forming the ErbB2/ErbB4 complex in cardiomyocytes and the ErbB2/ErbB3 complex in Schwann cells; endogenous in cells; host or cells: primary neonatal rat cardiomyocytes (Sprague Dawley pups, 0 to 4 days old)
T1 sequence (Q62956 26-1308): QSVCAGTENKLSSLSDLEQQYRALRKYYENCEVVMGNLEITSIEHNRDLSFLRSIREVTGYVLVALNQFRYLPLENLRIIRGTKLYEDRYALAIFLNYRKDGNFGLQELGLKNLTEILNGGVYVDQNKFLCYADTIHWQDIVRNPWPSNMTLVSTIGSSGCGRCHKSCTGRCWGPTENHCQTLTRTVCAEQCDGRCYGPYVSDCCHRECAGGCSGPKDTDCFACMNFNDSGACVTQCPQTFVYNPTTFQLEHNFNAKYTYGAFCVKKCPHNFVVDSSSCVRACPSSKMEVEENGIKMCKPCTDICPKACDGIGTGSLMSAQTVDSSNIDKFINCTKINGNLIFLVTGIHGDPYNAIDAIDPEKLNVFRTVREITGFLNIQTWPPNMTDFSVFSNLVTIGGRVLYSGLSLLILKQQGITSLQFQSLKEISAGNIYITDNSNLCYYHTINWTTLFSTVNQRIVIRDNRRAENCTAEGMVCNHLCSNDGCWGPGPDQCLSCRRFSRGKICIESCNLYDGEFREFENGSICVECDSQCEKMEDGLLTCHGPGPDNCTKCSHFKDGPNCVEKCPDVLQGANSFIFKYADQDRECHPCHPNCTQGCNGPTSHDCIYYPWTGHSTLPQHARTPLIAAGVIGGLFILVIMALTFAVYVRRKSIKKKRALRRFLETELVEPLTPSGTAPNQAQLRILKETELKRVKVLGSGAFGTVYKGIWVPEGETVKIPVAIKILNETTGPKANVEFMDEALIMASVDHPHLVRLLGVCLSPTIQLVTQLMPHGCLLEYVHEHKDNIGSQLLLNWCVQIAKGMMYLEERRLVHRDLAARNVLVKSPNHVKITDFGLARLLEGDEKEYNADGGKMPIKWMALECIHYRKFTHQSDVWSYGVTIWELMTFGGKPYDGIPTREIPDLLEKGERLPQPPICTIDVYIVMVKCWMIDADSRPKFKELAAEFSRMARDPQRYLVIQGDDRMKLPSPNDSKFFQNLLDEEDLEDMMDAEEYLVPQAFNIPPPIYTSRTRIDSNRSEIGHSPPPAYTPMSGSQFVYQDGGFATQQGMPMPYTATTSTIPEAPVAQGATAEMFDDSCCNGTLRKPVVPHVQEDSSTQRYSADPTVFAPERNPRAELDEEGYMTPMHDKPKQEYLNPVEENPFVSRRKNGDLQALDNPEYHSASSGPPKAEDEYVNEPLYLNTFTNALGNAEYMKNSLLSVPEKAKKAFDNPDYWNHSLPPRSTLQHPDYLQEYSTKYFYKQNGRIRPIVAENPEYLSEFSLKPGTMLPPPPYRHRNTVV
T1 sequence (P06494 23-1257 partner): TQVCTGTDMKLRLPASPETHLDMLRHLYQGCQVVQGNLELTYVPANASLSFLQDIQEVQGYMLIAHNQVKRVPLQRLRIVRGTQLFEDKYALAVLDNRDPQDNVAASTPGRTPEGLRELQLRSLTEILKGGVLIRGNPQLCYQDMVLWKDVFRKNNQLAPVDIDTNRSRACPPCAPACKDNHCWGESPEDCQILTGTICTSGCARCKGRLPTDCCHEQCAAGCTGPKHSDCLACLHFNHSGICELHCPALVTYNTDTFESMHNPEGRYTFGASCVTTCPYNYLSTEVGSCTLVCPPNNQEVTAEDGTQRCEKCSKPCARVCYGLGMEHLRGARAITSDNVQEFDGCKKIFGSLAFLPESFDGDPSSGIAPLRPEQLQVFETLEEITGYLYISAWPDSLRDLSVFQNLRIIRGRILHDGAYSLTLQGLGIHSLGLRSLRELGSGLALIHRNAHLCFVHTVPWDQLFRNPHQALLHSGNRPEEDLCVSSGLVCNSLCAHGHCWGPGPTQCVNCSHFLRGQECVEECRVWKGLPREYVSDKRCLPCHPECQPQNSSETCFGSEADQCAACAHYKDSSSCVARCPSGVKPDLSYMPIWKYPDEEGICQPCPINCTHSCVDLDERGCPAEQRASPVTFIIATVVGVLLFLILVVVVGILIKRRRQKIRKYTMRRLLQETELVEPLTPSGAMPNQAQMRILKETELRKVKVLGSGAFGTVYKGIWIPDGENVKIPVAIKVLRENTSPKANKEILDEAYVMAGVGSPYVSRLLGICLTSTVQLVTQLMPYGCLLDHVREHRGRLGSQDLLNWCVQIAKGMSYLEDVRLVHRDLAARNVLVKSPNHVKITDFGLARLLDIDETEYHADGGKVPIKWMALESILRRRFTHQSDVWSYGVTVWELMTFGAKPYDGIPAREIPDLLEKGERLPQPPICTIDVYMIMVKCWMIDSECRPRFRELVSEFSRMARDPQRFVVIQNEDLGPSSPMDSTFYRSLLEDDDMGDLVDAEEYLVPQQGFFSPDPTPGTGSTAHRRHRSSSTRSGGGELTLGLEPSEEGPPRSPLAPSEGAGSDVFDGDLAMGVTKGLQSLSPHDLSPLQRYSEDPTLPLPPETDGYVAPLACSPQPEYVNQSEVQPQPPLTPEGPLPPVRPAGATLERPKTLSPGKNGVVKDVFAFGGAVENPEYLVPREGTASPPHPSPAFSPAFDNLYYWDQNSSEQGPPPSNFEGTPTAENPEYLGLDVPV
Method: (§1) In Vitro Phosphorylation of Akt in Neonatal Rat Cardiomyocytes and Rat Schwann Cells by Neuregulin Variants
(§2) Specificity of neuregulin variants towards cardiomyocytes (ErbB4) versus Schwann cells (ErbB3) was tested by measuring Akt activity generated by formation of the ErbB2/ErbB4 and ErbB2/ErbB3 complexes. Upon activation by neuregulin, the ErbB4 and ErbB3 receptors dimerize preferentially with the ErbB2 co-receptor, forming the ErbB2/ErbB4 complex in cardiomyocytes and the ErbB2/ErbB3 complex in Schwann cells, both of which signal through the Akt pathway. Neonatal rat cardiomyocytes were isolated from hearts of Sprague Dawley rat pups at 0 to 4 days old according to manufacturer's protocol using the Neomyt kit and plated on Surecoat plates in NS media containing serum (all from Cellultron Life Technologies, Baltimore, MD). Rat Schwann cells were plated in Poly-D-Lysine coated plates with Dulbecco's modified Eagle's media (DMEM) supplemented with fetal bovine serum (Thermo Fisher) and forskolin (Millipore Sigma).
(§3) After a 24-hour incubation in a humidified incubator maintained at 37° C. and 5% CO2, cardiomyocytes and Schwann cells were washed with serum free media and incubated an additional 16 hours in DMEM supplemented with bovine serum albumin (Sigma). Both cell lines were then treated with titrations of the neuregulin variant molecules for 15 minutes, upon which cells were lysed in lysis buffer (Meso Scale Discovery (MSD)). For detection of Akt phosphorylation, lysates were added to the Multi-Spot 96-Well 4-Spot Phospho (Serine 473)/Total Akt plates (MSD), incubated according to the manufacturer's protocol and read in the SECTOR Imager 6000 (MSD). For both cell assays, the percent phosphorylation of Akt was calculated by multiplying the phospho Akt signal by 2, then dividing by the phospho Akt signal added to the total Akt signal and then multiplying by 100. The phosphorylation of Akt data points were fitted using a log (agonist) versus response, variable slope (4 parameters) analysis in GraphPad Prism to generate EC50 curves. The CM % agonism reflect the top value of the data points.

ErbB3 = target: T2, ErbB3 (Rattus norvegicus, UniProt Q62799); assay: In vitro phosphorylation of Akt in rat Schwann cells; assay type: cell-based; details: Akt (Serine 473) phosphorylation, 15 minutes treatment
T2 construct: forming the ErbB2/ErbB4 complex in cardiomyocytes and the ErbB2/ErbB3 complex in Schwann cells; endogenous in cells; host or cells: rat Schwann cells
T2 sequence (Q62799 20-1339): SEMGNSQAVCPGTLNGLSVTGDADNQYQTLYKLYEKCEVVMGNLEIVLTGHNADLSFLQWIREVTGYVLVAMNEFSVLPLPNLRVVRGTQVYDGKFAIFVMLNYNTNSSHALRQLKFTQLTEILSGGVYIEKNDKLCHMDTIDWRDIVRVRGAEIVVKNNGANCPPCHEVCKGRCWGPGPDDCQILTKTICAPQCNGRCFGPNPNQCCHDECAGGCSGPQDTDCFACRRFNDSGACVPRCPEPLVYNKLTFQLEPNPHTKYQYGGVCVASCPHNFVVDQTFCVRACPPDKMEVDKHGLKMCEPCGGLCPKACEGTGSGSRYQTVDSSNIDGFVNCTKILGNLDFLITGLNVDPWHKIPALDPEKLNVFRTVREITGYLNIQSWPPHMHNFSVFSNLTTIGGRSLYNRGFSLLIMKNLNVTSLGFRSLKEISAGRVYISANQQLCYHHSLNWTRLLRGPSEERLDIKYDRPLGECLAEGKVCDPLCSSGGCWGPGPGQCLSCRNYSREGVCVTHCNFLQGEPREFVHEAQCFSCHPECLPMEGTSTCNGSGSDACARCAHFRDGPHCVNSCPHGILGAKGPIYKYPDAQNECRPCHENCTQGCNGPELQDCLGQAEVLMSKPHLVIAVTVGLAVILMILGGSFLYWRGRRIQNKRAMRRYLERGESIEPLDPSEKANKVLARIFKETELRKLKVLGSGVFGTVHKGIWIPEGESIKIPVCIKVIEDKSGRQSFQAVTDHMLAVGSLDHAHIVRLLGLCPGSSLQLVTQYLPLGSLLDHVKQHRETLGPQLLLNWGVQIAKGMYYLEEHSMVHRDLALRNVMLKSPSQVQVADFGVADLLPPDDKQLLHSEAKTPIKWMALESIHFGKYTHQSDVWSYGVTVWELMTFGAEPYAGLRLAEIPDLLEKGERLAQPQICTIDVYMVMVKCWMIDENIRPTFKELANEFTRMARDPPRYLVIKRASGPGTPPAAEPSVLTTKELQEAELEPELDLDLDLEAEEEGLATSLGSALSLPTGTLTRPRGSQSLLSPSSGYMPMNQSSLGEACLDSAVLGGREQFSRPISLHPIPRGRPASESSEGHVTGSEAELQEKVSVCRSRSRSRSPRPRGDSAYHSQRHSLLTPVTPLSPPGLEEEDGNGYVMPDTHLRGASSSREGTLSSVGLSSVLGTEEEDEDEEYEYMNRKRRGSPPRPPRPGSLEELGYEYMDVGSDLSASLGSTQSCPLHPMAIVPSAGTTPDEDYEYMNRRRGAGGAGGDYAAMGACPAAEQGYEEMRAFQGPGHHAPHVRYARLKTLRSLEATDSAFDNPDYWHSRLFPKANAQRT
T2 sequence (P06494 23-1257 partner): as the sequence (P06494 23-1257 partner) above
Method: as §1, §2, §3

EC50 (ErbB4)	Selectivity SC/CM (ErbB4)	CM % Agonism AVG (ErbB4)	Schwann cells (SC) (ErbB3) Avg EC50 (M) (ErbB3)	Molecule
6.4 nM	>10000	62.7%	inactive	:huFcSEFL2(desK)vl31(+):G4SG4:huNRG1(S177-F229)(NRGE1C): N-terminal Fc fusion of NRG1 variant SEQ ID NO:117 (protein, huFcSEFL2(desK)v131(+)G4SG4huNRG1(S177-F229) (NRGE1C)) DKTHTCPPCPAPELLGGPSVFLFPPKPKDTLMISRTPEVTCVVVDVSHEDPEVKFNWYVDGVEVHNAKTKPCEEQYGSTYRCVSVLTVLHQDWLNGKEYKCKVSNKALPAPIEKTISKAKGQPREPQVYTLPPSREKMTKNQVSLTCLVKGFYPSDIAVEWESNGQPENNYKTTPPVLKSDGSFFLYSKLTVDKSRWQQGNVFSCSVMHEALHNHYTQKSLSLSPGGGGGSGGGGSHLVKCGEKHKSFCVNGGECFMIEGPSNPSRYLCKCPNEFTGDRCQEDFMASFDKTHTCPPCPAPELLGGPSVFLFPPKPKDTLMISRTPEVTCVVVDVSHEDPEVKFNWYVDGVEVHNAKTKPCEEQYGSTYRCVSVLTVLHQDWLNGKEYKCKVSNKALPAPIEKTISKAKGQPREPQVYTLPPSREEMTENQVSLTCLVEGFYPSDIAVEWESNGQPENNYETTPPVLDSDGSFFLYSDLTVDKSRWQQGNVFSCSVMHEALHNHYTQKSLSLSPGK
4.3 nM	>10000	72.3%	inactive	:huFcSEFL2(desK)vl31(+):G4SG4:huNRG1(S177-F229)(NRGE1D): N-terminal Fc fusion of NRG1 variant SEQ ID NO:126 (protein, huFcSEFL2(desK)v131(+)G4SG4huNRG1(S177-F229) (NRGE1D)) DKTHTCPPCPAPELLGGPSVFLFPPKPKDTLMISRTPEVTCVVVDVSHEDPEVKFNWYVDGVEVHNAKTKPCEEQYGSTYRCVSVLTVLHQDWLNGKEYKCKVSNKALPAPIEKTISKAKGQPREPQVYTLPPSREKMTKNQVSLTCLVKGFYPSDIAVEWESNGQPENNYKTTPPVLKSDGSFFLYSKLTVDKSRWQQGNVFSCSVMHEALHNHYTQKSLSLSPGGGGGSGGGGSHLVKCGESHKSFCVNGGECYMVEGSSIPSRYLCKCPNEFTGDRCQEDFMASFDKTHTCPPCPAPELLGGPSVFLFPPKPKDTLMISRTPEVTCVVVDVSHEDPEVKFNWYVDGVEVHNAKTKPCEEQYGSTYRCVSVLTVLHQDWLNGKEYKCKVSNKALPAPIEKTISKAKGQPREPQVYTLPPSREEMTENQVSLTCLVEGFYPSDIAVEWESNGQPENNYETTPPVLDSDGSFFLYSDLTVDKSRWQQGNVFSCSVMHEALHNHYTQKSLSLSPGK
